Test results: the supplement of paper PMC10201428
± gives the standard deviation of the averaged measurements.

How the values were obtained:
[1] = system: VchCAST RNA-guided transposition machinery (E. coli BL21(DE3) host, lacZ target); assay: relative integration efficiency (T-RL orientation) vs wild-type transposon end (log2 (normalized fold change)); transposon end mutated: left end; higher = more efficient transposition
Procedure, shortened: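 Co-transformation of E. coli BL21(DE3) combined a pUC57 mini-transposon donor, holding barcoded pools of 1549 left-end or 1849 right-end variants, with a T7-driven plasmid encoding a CRISPR array, tniQ-cas8-cas7-cas6 and tnsA-tnsB-tnsC. After plating with 0.1 mM IPTG at 37°C for 18 h, input plasmids and genomic integration junctions were PCR-amplified and Illumina-sequenced across two biological output replicates, with four reference barcodes. Relative integration efficiency is the normalised, log-transformed output/input barcode fold change.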

[2] = system: VchCAST RNA-guided transposition machinery (E. coli BL21(DE3) host, lacZ target); assay: relative integration efficiency (T-LR orientation) vs wild-type transposon end (log2 (normalized fold change)); transposon end mutated: left end; higher = more efficient transposition
Procedure: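 Pooled, barcoded VchCAST (Tn6677) mini-transposon donor libraries; each variable transposon-end sequence sits in a fixed pDonor mini-transposon context (10-bp barcode and cargo not included). Left- or right-end libraries were co-transformed with pEffector (TniQ-Cascade, TnsABC, lacZ crRNA, T7, 0.1 mM IPTG) into E. coli BL21(DE3) and grown 18 h at 37 C. T-LR and T-RL junction amplicons were sequenced; output/input barcode fold change was normalised to the mean of four wild-type barcodes and log2-transformed. Two biological replicates; zero-count/undetected variants carry floor values (-10 / -15), censored here. Barcode uncoupling by PCR recombination adds noise.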

Sequence: AATGTTGTTGAAACAACCATAAAGTGATAACAACGAATCAATTAAAATCATAGGCTTAATCGAAAAACAACCATATCTTGATATCGCACAAAACAACCATAAGTTGATATTTTTGTGAATCGAGTATTTCAGCAAAACTACTGCAGTAAGAA
- relative integration efficiency (log2) [1]: -0.51 ± 0.3
- relative integration efficiency (log2) [2]: -0.526 ± 0.33

Sequence: AATGTTGTTGAAACAACCATAAAGTGATAACAACGAATCAATTAAAATCATAGGCTTAATCGAAAAACAACCATATCTTGATATCGCATAAAACAACCATAAGTTGATATTTTGGTGAAAAGGATATTCCAACCTTCATAGTTTAGTAAGAA
- relative integration efficiency (log2) [1]: -0.201 ± 0.34
- relative integration efficiency (log2) [2]: 0.198 ± 0.12

Sequence: AATGTTGTTGAAACAACCATAAAGTGATAACAACGAATCAATTAAAATCATAGGCTTAATCGAAAAACAACCATATCTTGATATCGCATAAAACAACCATAAGTTGATATTTTGGTGAAACGAGTATTTCAGCAAAACTACTGCAGTAAGAA
- relative integration efficiency (log2) [1]: 0.0434 ± 0.29
- relative integration efficiency (log2) [2]: -0.44 ± 0.53

Sequence: AATGTTGTTGAAACAACCATAAAGTGATAACAACGAATCAATTAAAATCATAGGCTTAATCGAAAAACAACCATATCTTGATATCGCATAAAACAACCATAAGTTGATATTTTTGTGAATCGAGTATTTCAGCAAAACTACTGCAGTAAGAA
- relative integration efficiency (log2) [1]: -0.424 ± 0.24
- relative integration efficiency (log2) [2]: -0.327 ± 0.31

Sequence: AATGTTGTTGACAACCATAAAGTGATATTTAATAATTATTTATAATCAGCAACTTAACCACAAAACAACCATATATTGATATCTCACAAAACAACCATAAGTTGATATTTTTGTGAATCGAGTATTTCAGCAAAACTACTGCAGTAAGAAAG
- relative integration efficiency (log2) [1]: -1.33 ± 0.66
- relative integration efficiency (log2) [2]: -5.1 ± 0.69

Sequence: AATGTTGTTGATACAACCATAAAATGATAATTACACCCATAAATTGATAATTATCACACCCATAAATTGATATTGCTGTGAATCGAGTATTTCAGCAAAACTACTGCAGTAAGAAAGTTACTTCGTGGTATGGGAGGATCAAGGAGCCAATA
- relative integration efficiency (log2) [1]: -2.21 ± 0.71
- relative integration efficiency (log2) [2]: 3.47 ± 0.79

Sequence: AATGTTGTTGATACAACCATAAAGTGATATTTACAACCATATATTGATATCTCTCACAACCATAAGTTGATATTTTTGTGAATCGAGTATTTCAGCAAAACTACTGCAGTAAGAAAGTTACTTCGTGGTATGGGAGGATCAAGGAGCCAATA
- relative integration efficiency (log2) [1]: -3.51 ± 1
- relative integration efficiency (log2) [2]: 2.35 ± 0.84

Sequence: AATGTTGTTGATCAACCATAAAGTGATATTTAATAATTATTTATAATCAGCAACTTAACCACAAAACAACCATATATTGATATCTCACAAAACAACCATAAGTTGATATTTTTGTGAATCGAGTATTTCAGCAAAACTACTGCAGTAAGAAA
- relative integration efficiency (log2) [1]: -6.905 ± 0.028
- relative integration efficiency (log2) [2]: < -10

Sequence: AATGTTGTTGATGCAACACGCCCTGTCGCGGGCCGCCGGCGGGCGCCGACTACCAGGCCAACACCCCACCAACGCGCGGTCGCGAGACACCCCACCAACGCCTGGTCGCGGGGGTGTCCGATCTGATTTCAGCAAAACTACTGCAGTAAGAA
- relative integration efficiency (log2) [1]: < -10
- relative integration efficiency (log2) [2]: < -10

Sequence: AATGTTGTTGATGCAACCAATTTCTGATATTTAATAATTATTTATAATCAGCAACTTAACCACAAAACAACCAATATATGATATCTCACAAAACAACCAATTCATGATATTTTTGTGAATCGAGTATTTCAGCAAAACTACTGCAGTAAGAA
- relative integration efficiency (log2) [1]: -2.5 ± 1.1
- relative integration efficiency (log2) [2]: -1.57 ± 0.77

Sequence: AATGTTGTTGATGCAACCAGCCCTGTCGCGGGCCGCCGGCGGGCGCCGACTACCAGGCCAACACCCCACCAACGCGCGGTCGCGAGACACCCCACCAACGCCTGGTCGCGGGGGTGTCCGATCTGATTTCAGCAAAACTACTGCAGTAAGAA
- relative integration efficiency (log2) [1]: < -10
- relative integration efficiency (log2) [2]: -9 ± 0.31

Sequence: AATGTTGTTGATGCAACCATAAAATGATAATTAATAATTATTTATAATCAGCAACTTAACCACAAAACAACCATAAAATGATAATTAACAAAAGTTGGTATTCAACTATAAAATGTGAATCGAGTATTTCAGCAAAACTACTGCAGTAAGAA
- relative integration efficiency (log2) [1]: -2.57 ± 1.3
- relative integration efficiency (log2) [2]: -1.23 ± 2.7

Sequence: AATGTTGTTGATGCAACCATAAAATGATAATTAATAATTATTTATAATCAGCAACTTAACCACAAAACAACCATAAAATGATAATTAACAAAATAATTATCATTTTATGGTTGTGTGAATCGAGTATTTCAGCAAAACTACTGCAGTAAGAA
- relative integration efficiency (log2) [1]: -3.63 ± 0.84
- relative integration efficiency (log2) [2]: 0.0912 ± 1.6

Sequence: AATGTTGTTGATGCAACCATAAAATGATAATTAATAATTATTTATAATCAGCAACTTAACCACAAAACAACCATAAAATGATAATTATTTTGTCAACCATAAAATGATAATTATGTGAATCGAGTATTTCAGCAAAACTACTGCAGTAAGAA
- relative integration efficiency (log2) [1]: -1.39 ± 0.9
- relative integration efficiency (log2) [2]: -1.36 ± 1.1

Sequence: AATGTTGTTGATGCAACCATAAAATGATAATTAATAATTATTTATAATCAGCAACTTAACCACAAAACAACCATAAAGTGATATTTAACAAAAGTTGGTATTCAACTATAAAATGTGAATCGAGTATTTCAGCAAAACTACTGCAGTAAGAA
- relative integration efficiency (log2) [1]: -2.33 ± 0.95
- relative integration efficiency (log2) [2]: -0.635 ± 1

Sequence: AATGTTGTTGATGCAACCATAAAATGATAATTAATAATTATTTATAATCAGCAACTTAACCACAAAACAACCATAAGTTGATATTTTACAAAAGTTGGTATTCAACTATAAAATGTGAATCGAGTATTTCAGCAAAACTACTGCAGTAAGAA
- relative integration efficiency (log2) [1]: -2.24 ± 0.86
- relative integration efficiency (log2) [2]: -1.49 ± 1.9

Sequence: AATGTTGTTGATGCAACCATAAAATGATAATTAATAATTATTTATAATCAGCAACTTAACCACAAAACAACCATATATTGATATCTCACAAAAGTTGGTATTCAACTATAAAATGTGAATCGAGTATTTCAGCAAAACTACTGCAGTAAGAA
- relative integration efficiency (log2) [1]: -2.59 ± 1.1
- relative integration efficiency (log2) [2]: -0.862 ± 0.91

Sequence: AATGTTGTTGATGCAACCATAAAATGATAATTAATAATTATTTATAATCAGCAACTTAACCACAAAACACCCATAAATTGATAATTAACAAAAGTTGGTATTCAACTATAAAATGTGAATCGAGTATTTCAGCAAAACTACTGCAGTAAGAA
- relative integration efficiency (log2) [1]: -2.02 ± 1.1
- relative integration efficiency (log2) [2]: -0.121 ± 0.44

Sequence: AATGTTGTTGATGCAACCATAAAATGATAATTAATAATTATTTATAATCAGCAACTTAACCACAAAACACCCATAAATTGATATTGCACAAAAGTTGGTATTCAACTATAAAATGTGAATCGAGTATTTCAGCAAAACTACTGCAGTAAGAA
- relative integration efficiency (log2) [1]: -3.1 ± 1.4
- relative integration efficiency (log2) [2]: -1.48 ± 0.57

Sequence: AATGTTGTTGATGCAACCATAAAATGATAATTAATAATTATTTATAATCAGCAACTTAACCACAAAATAATTATCATTTTATGGTTGACAAAATAATTATCATTTTATGGTTGTGTGAATCGAGTATTTCAGCAAAACTACTGCAGTAAGAA
- relative integration efficiency (log2) [1]: -6.03 ± 2.2
- relative integration efficiency (log2) [2]: -0.969 ± 0.98

Sequence: AATGTTGTTGATGCAACCATAAAGTGAGCGGGCATAATTATTTATAATCAGCAACTTAACCACAAAACAACCATATATTGAGCGAGAACAAAACAACCATAAGTTGAGCGGGGTGTGAATCGAGTATTTCAGCAAAACTACTGCAGTAAGAA
- relative integration efficiency (log2) [1]: -6.46 ± 1.3
- relative integration efficiency (log2) [2]: -4.11 ± 0.54

Sequence: AATGTTGTTGATGCAACCATAAAGTGATAATAATTATTTATAATCAGCAACTTAACCACAAAACAACCATATATTGATATCTCACAAAACAACCATAAGTTGATATTTTTGTGAATCGAGTATTTCAGCAAAACTACTGCAGTAAGAAAGTT
- relative integration efficiency (log2) [1]: -7.71 ± 1.4
- relative integration efficiency (log2) [2]: -6.51 ± 1.4

Sequence: AATGTTGTTGATGCAACCATAAAGTGATAGGGCCGCCGGCGGGCGCCGACTACCAGGCCAACACCCCACCAACGCGCGGTCGCGAGACACCCCACCAACGCCTGGTCGCGGGGGTGTCCGATCTGATTTCAGCAAAACTACTGCAGTAAGAA
- relative integration efficiency (log2) [1]: -7.44 ± 1.6
- relative integration efficiency (log2) [2]: -5.19 ± 2.5

Sequence: AATGTTGTTGATGCAACCATAAAGTGATATATAATTATTTATAATCAGCAACTTAACCACAAAACAACCATATATTGATATCTCACAAAACAACCATAAGTTGATATTTTTGTGAATCGAGTATTTCAGCAAAACTACTGCAGTAAGAAAGT
- relative integration efficiency (log2) [1]: -7.3 ± 1.5
- relative integration efficiency (log2) [2]: -4.68 ± 0.68

Sequence: AATGTTGTTGATGCAACCATAAAGTGATATGGCCGCCGGCGGGCGCCGACTACCAGGCCAACACCCCACCAACGCGCGGTCGCGAGACACCCCACCAACGCCTGGTCGCGGGGGTGTCCGATCTGATTTCAGCAAAACTACTGCAGTAAGAA
- relative integration efficiency (log2) [1]: -7.18 ± 0.63
- relative integration efficiency (log2) [2]: -6.67 ± 3.5

Sequence: AATGTTGTTGATGCAACCATAAAGTGATATTGCCGCCGGCGGGCGCCGACTACCAGGCCAACACCCCACCAACGCGCGGTCGCGAGACACCCCACCAACGCCTGGTCGCGGGGGTGTCCGATCTGATTTCAGCAAAACTACTGCAGTAAGAA
- relative integration efficiency (log2) [1]: -7.14 ± 1.3
- relative integration efficiency (log2) [2]: -5.87 ± 0.86

Sequence: AATGTTGTTGATGCAACCATAAAGTGATATTTAAAATGTGAGCGAGTAACAACCCTTAACCACAAAACAACCATATATTGATATCTCACAAAACAACCATAAGTTGATATTTTTGTGAATCGAGTATTTCAGCAAAACTACTGCAGTAAGAA
- relative integration efficiency (log2) [1]: -2.19 ± 0.48
- relative integration efficiency (log2) [2]: -0.988 ± 0.33

Sequence: AATGTTGTTGATGCCCAACGCCCTGTCGCGGGCCGCCGGCGGGCGCCGACTACCAGGCCAACACCCCACCAACGCGCGGTCGCGAGACACCCCACCAACGCCTGGTCGCGGGGGTGTCCGATCTGATTTCAGCAAAACTACTGCAGTAAGAA
- relative integration efficiency (log2) [2]: < -10

Sequence: AATGTTGTTGATGTAATTATCATTTTATGGTTGATAATTATTTATAATCAGCAACTTAACCACAAAACAACCATAAAATGATAATTAACAAAACAACCATAAAATGATAATTATGTGAATCGAGTATTTCAGCAAAACTACTGCAGTAAGAA
- relative integration efficiency (log2) [2]: < -10

Sequence: AATGTTGTTGATGTAATTATCATTTTATGGTTGATAATTATTTATAATCAGCAACTTAACCACAAAATAATTATCATTTTATGGTTGACAAAACAACCATAAAATGATAATTATGTGAATCGAGTATTTCAGCAAAACTACTGCAGTAAGAA
- relative integration efficiency (log2) [2]: < -10
